Publication doi:10.1101/2024.12.20.629688, “The PH domain in the ArfGAP ASAP1 drives catalytic activation through an unprecedented allosteric mechanism” (bioRxiv, 2024)

T1: ASAP1 ZA domain (Arf GAP and ankyrin repeat domains), [431–724]ASAP1 (UniProt Q9QWY8 431-724)
T1 construct: Isotopically labelled for the PRE experiment; also called ^ΔPHZA; isolated ZA domain; source: recombinant; expression not described
T1 sequence (looked up): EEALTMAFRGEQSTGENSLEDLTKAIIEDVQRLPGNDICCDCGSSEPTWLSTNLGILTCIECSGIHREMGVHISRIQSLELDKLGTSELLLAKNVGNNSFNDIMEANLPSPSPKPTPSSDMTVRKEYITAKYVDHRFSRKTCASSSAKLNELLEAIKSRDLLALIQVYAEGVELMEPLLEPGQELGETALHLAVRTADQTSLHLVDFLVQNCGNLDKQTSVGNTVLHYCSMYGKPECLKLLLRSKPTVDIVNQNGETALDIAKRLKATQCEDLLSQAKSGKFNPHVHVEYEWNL


Assays:
[1] = molecular target: T2, myristoylated human Arf1, GTP-bound form, anchored on membrane (nanodiscs or LUVs) (human, UniProt P84077 1-181, N-myristoylated); assay: cell-based or functional assay
[2] = molecular target: T2, myristoylated human Arf1, GTP-bound …; assay: other fluorescence titration + other: inhibition of the GAP activity of wt PZA; proxies for affinity: (1) rate of mant-GTP dissociation from myrArf1 (Trp to mant FRET) against PH concentration, LUVs with 5 mol% PI(4,5)P2, excess GTP; (2) IC50 of PH domain on GTP hydrolysis in 3 min with myrArf1·GTP below the Km and 1 nM wt PZA; settings: both partners purified
[3] = molecular target: T1, ASAP1 ZA domain (Arf GAP and ankyrin …); assay: NMR paramagnetic relaxation enhancement; Cys159-MTSL myrArf1 (non-hydrolysable GTP analog) alone or in complex with wt PH on nanodiscs, 100 μM, with 100 μM isolated isotopically labelled ZA domain; settings: both partners purified

T2 sequence (P84077 whole entry, the tested form may be a part): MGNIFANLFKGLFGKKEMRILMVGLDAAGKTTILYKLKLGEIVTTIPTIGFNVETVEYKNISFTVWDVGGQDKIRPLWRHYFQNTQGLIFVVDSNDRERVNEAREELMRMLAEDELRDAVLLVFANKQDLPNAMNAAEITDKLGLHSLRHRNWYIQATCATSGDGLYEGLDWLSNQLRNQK

Row | “in trans” effect of the PH domain on GTP hydrolysis on myrArf1 by the isolated ZA domain (LUVs), relative to wt PH [1] | affinity relative to wt PH [2] | Kd [3] [µM] | Binder
1 | 0.01 fold of wt PH | ~0.5 fold of wt PH | – | ΔN14 ASAP1 PH domain, [339–451]ASAP1 (domain or fragment, UniProt Q9QWY8 339-451, looked up, ASAP1 PH domain without residues 325-338 (the first 14 residues of the wt PH construct), residues 339-451; also called ^ΔN14PH) GSEKKGFLLKKSDGIRKVWQRRKCAVKNGILTISHATSNRQPAKLNLLTCQVKPNAEDKKSFDLISHNRTYHFQAEDEQDYIAWISVLTNSKEEALTMAFRGEQSTGENSLED
2 | – | – | 100 to 1000 | Cys159-MTSL tagged myrArf1 (natural protein, N-myristoylated; MTSL spin label on the native Cys159, human Arf1, UniProt P84077; source: E. coli BL21 Star (DE3), co-expressed with yeast NMT, purified; spin-labelled on nanodiscs) not shown
